In patent publication US5747449A (Corvas International, Inc., priority 1993, dated 1998):

molecular target: Factor Xa (Homo sapiens, UniProt P00742); test: Factor Xa amidolytic assay (chromogenic substrate); assay type: biochemical; conditions: mutants produced in E. coli; read-out: Ki (nM), inhibition constant for Factor Xa
Procedure: Trypsin, Factor Xa, thrombin, Factor XIIa and plasmin amidolytic assays […]
Briefly, the following were added to a 96-well microtiter plate well (see Table below):
50 μl inhibitor (various concentrations as required, diluted in TESA);
50 μl protease (suitable concentration, diluted in TBSA)
The plate was incubated at room temperature for 30 minutes or for 2 hours (Factor Xa); and 50 μl chromogenic substrate was added (as required, diluted in water). The initial rate was measured at […] during 10-30 minutes at room temperature.
To determine the inhibition constants, the initial rate (vi) was measured at various inhibitor ([It ]) and substrate concentrations, and the apparent inhibition constant (Ki) was determined by fitting the data obtained at each substrate concentration with the following equation: […]
vi /vo ={([Et ]-[It ]-Ki^*) +[([It […]
where vo is the uninhibited initial rate and [Et ] is the total enzyme concentration. Extrapolation of Ki^* values to zero substrate concentrations yields a value for the real inhibition constant.

Chain of Factor Xa (P00742 235-488 limits assumed): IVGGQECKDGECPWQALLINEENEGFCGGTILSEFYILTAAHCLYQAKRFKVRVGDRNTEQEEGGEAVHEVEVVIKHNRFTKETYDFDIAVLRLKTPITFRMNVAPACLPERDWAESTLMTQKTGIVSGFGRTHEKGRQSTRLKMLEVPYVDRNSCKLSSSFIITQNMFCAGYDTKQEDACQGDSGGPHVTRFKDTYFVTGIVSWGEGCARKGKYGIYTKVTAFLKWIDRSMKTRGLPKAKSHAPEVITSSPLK
Chain of Factor Xa (P00742 41-179 partner limits assumed): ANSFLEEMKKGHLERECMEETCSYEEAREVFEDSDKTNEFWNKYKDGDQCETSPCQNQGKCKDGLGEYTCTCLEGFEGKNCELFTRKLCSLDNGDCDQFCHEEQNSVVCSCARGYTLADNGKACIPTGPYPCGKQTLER

Row | Substance | Ki [nM]
1 | 5L69: BPTI with substitutions 11Pro 13Ile 15Arg 17Leu 18His 19Lys 34Tyr 39Met 46Glu | 5
2 | 3L55: BPTI with substitutions 13Ile 15Arg 17Ala 18Phe 19Asn 39Leu 46Glu | 5
3 | 5L84: BPTI with substitutions 11Glu 13Leu 15Arg 17Leu 18His 19Lys 34Tyr 39Phe 46Glu | 2
4 | 5L65: BPTI with substitutions 11Ser 13Leu 15Arg 17Leu 18His 19Lys 34Tyr 39Tyr 46Glu | 5
5 | 5L68: BPTI with substitutions 11Ser 13Leu 15Arg 17Leu 18His 19Lys 34Tyr 39Phe 46Glu | 1.5
6 | 5L48: BPTI with substitutions 11Glu 13Trp 15Arg 17Leu 18His 19His 34Ile 39Gly 46Glu | 4
7 | 3L60: BPTI with substitutions 13Ile 15Arg 17Tyr 18Tyr 19Lys 39Leu 46Glu | 4
